Experiment [1] addresses T1, HLA-DR (human leukocyte antigen-DR) on human lymphoma and leukemia cells and human lymphocytes (human, UniProt P01903 26-254; P01911 30-266).
T1 construct: whole, on cells; Natural antigen on Raji, Daudi, Ramos, Namalwa and other cell lines; also called cell surface antigen (Ag) recognized by L243
Nature of the experiment: direct cell surface saturation binding of 125I-labeled antibody to Daudi cells, 4 C, Scatchard plot; apparent dissociation constant. The protocol: The cell-associated radioactivity was counted, specific binding of radiolabeled antibody to the cell surface antigen calculated, and Scatchard plot analysis was then applied to determine the maximum number of binding sites per cell and the apparent antigen-binding affinity constant.
To measure specific cell surface antigen binding, two sets of cells were prepared and used in the binding assay to estimate the non-specific and total binding of radioactivities, respectively. The cells for non-specific binding were pre-incubated with excess amount of unlabled Ab to block all surface antigen sites prior to adding the radiolabeled antibody, while those for total binding were pre-incubated in PBS. […] The cell-associated radioactivity was counted. The specific cell surface binding of the radiolabeled antibody at a given concentration of radiolabeled antibody was calculated as: the counts of total binding minus the counts of non-specific binding.

Experiment [2] addresses T1, HLA-DR (human leukocyte antigen-DR) on …. Put plainly: competition cell-binding assay, unlabeled antibody against 125I-labeled L243 antibody on human lymphoma cells (FIG. 6: Raji). The protocol: (§1) Unbound Abs were removed by washing the cells in PBS. The radioactivity associated with cells was determined after washing.
Experiment [3] shares this target. Nature of the experiment: competition cell-binding assay on human lymphoma cells; reference mL243. The protocol:
as §1

The values that follow come from patent US20160355591A1 (published 2016).

B1: mL243 (murine L243 anti-HLA-DR monoclonal antibody, IgG2a, ATCC HB55) (antibody, V domains shown)
VH: QIQLVQSGPELKKPGETVKISCKASGFTFTNYGMNWVKQAPGKGLKWMGWINTYTREPTYADDFKGRFAFSLETSASTAYLQINNLKNEDTAKYFCARDITAVVPTGFDYWGQGTTLTVSS
VL: DIQMTQSPASLSVSVGETVTITCRASENIYSNLAWYRQKQGKSPQLLVFAASNLADGVPSRFSGSGSGTQYSLKINSLQSEDFGDYYCQHFWTTPWAFGGGTNLEIKR
notes: Murine IgG2a from hybridoma ATCC HB55; also called mL234; L234
As usually defined, the EC50 is the concentration needed to bring the measured effect to its halfway point. A high value points to a less potent agent. Regarding B1, the Kd in experiment [1] worked out at 14 nM. For the same molecule, the concentration for a half-maximal effect (EC50) in experiment [2] was roughly 16.5 nM.

B2: hL243γ4P (IMMU-114; humanized L243, IgG4/K isotype with Ser241Pro hinge mutation) (antibody, V domains shown)
VH: QVQLQQSGSELKKPGASVKVSCKASGFTFTNYGMNWVKQAPGQGLKWMGWINTYTREPTYADDFKGRFAFSLDTSVSTAYLQISSLKADDTAVYFCARDITAVVPTGFDYWGQGSLVTVSS
VL: DIQLTQSPSSLSASVGDRVTITCRASENIYSNLAWYRQKPGKAPKLLVFAASNLADGVPSRFSGSGSGTDYTFTISSLQPEDIATYYCQHFWTTPWAFGGGTKLQIKR
notes: Same V regions as hL243; also called hL243g4P; hL243gamma4P
In the case of B2, the “fold stronger binding avidity than mL243” value in experiment [3] was roughly 2 fold. For the same molecule, the Kd in experiment [1] came out at 2.6 nM. Further, the EC50 in experiment [2] was roughly 7 nM.
